Holding throughout (assay): DTNB free-thiol (CoA) assay, Hanes-Woolf
The target of one series is T1, FadD1 (Glaesserella parasuis, UniProt B8F3K7).
T1 construct: gene lcfA; full length, His-tagged in pET28b (NdeI/HindIII), no tag removal described; E. coli BL21 host; locus tag is that of strain SH0165
T1 sequence (B8F3K7 1-566): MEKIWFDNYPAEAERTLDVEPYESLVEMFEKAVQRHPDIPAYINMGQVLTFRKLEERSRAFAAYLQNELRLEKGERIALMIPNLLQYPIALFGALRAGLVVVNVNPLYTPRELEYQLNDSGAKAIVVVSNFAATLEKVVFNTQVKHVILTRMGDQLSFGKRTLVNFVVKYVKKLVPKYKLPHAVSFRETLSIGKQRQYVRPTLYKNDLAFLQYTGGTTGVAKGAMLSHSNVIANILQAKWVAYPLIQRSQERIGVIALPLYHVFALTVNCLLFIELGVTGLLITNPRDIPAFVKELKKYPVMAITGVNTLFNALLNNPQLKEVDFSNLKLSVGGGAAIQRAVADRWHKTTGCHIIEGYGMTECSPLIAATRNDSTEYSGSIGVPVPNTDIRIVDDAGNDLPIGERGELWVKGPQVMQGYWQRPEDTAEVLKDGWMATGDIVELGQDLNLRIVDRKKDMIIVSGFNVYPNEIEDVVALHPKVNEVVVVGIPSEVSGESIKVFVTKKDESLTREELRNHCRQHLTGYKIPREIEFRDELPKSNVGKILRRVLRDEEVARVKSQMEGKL
Type of series: biochemical. The following applies: 5 mM ATP, 0.5 mM CoA, 10 mM MgCl2, 0.1% Triton X-100, pH 7.2, 37°C; read-out: Kinetic parameters^a / Km^c. The source says: (§1) DTNB free-thiol (CoA) assay, Hanes-Woolf on FadD1

Substrate in series [1]: CCCCCCCCCCCCCC(=O)O
It counts as biochemical, Glaesserella parasuis. Particulars: 5 mM ATP, 0.5 mM CoA, 10 mM MgCl2, 0.1% Triton X-100, pH 7.2, 37°C. The source says: (§2) DTNB free-thiol (CoA) assay, Hanes-Woolf on FadD2

Substrate in series [2]: CCCCCCCCCCCCCCCC(=O)O
It counts as biochemical, Glaesserella parasuis. The following applies: 5 mM ATP, 0.5 mM CoA, 10 mM MgCl2, 0.1% Triton X-100, pH 7.2, 37°C.
From the text: as §2

Substrate in series [3]: CCCCCCCCCCCCCC(=O)O
Type of series: biochemical, Glaesserella parasuis. The following applies: 5 mM ATP, 0.5 mM CoA, 10 mM MgCl2, 0.1% Triton X-100, pH 7.2, 37°C.
From the text: as §1
The source holds these as a separate data set.

Substrate in series [4]: CCCCCCCCCCCCCCCC(=O)O
Type of series: biochemical, Glaesserella parasuis. The following applies: 5 mM ATP, 0.5 mM CoA, 10 mM MgCl2, 0.1% Triton X-100, pH 7.2, 37°C.
From the text: as §1
The source holds these as a separate data set.

Consider `CCCCCCCC/C=C\CCCCCCCC(=O)O` [C18:1], for which the Km on FadD1 turned out to be 15.6 µM.

B1: FadD2 (Glaesserella parasuis SH0165) (protein)
chain: MASLDFHFVNRFRLQAKKWLNRTALRFREQAQWQEMSWQTFQQEIDRFSYALIAQHIDIQDKIGIFANNMPRWTIADFGAMQARAVAVPIYATNTAKQVEYIVNDADIKILFVGDQEQLDQVCQIANNCPQLMKIVAMKANMDLRDLPNACYWEDFLDVVPNEAEFEKRLNSKQLSDLFTLIYTSGTTGEPKGVMLDYANLAHQLNAHDLALNVNEDDVSLSFLPLSHIFERAWVAYVFHRGATNCYLEDTNHVRDALTTLKPTVMCAVPRFYEKIYTAVWDKVEKAPAHRRALFNWAIRVGEKHYQTEQPSQWLRLQYALADKLVLTKLRALLGGRIKMMPCGGAKLEASIGSFFHSIGINIKLGYGMTETTATVSCWQDKGFNPNSIGTLMPNAEVKIGEENEILVRGGMVMRGYYKKPEETAKAFTEDGFLRTGDVGEMDSCGNLFITDRLKELMKTLNGKYIAPQYIEGKIGKDKFIEQIAVIADAKKYVSALIVPCFDSLEEYAKQLNIKYQDRIELIKHSDIIQMFERRIHELQKELPSFEQVKKFTLLPQAFSTAMEEITPTLKLRRKVIMQRYREQIEEMYNERSLT
notes: full length, His-tagged in pET28b (NdeI/HindIII), no tag removal described; E. coli BL21 host; locus tag is that of strain SH0165
As a reminder, the kcat is the number of substrate molecules converted per active site and unit of time at saturation. For orientation: kcat/Km means the turnover number divided by the Michaelis constant. On to B1, for which, in series [1], the Km amounted to 173.40 µM, the kcat amounted to 0.002 s⁻¹ and the kcat/Km was 10 M⁻¹ s⁻¹. In addition, in series [2], the Km stood at 128.30 µM, the kcat stood at 0.020 s⁻¹ and the kcat/Km is 160 M⁻¹ s⁻¹.

B2: FadD1 (Glaesserella parasuis SH0165) (protein)
chain: MEKIWFDNYPAEAERTLDVEPYESLVEMFEKAVQRHPDIPAYINMGQVLTFRKLEERSRAFAAYLQNELRLEKGERIALMIPNLLQYPIALFGALRAGLVVVNVNPLYTPRELEYQLNDSGAKAIVVVSNFAATLEKVVFNTQVKHVILTRMGDQLSFGKRTLVNFVVKYVKKLVPKYKLPHAVSFRETLSIGKQRQYVRPTLYKNDLAFLQYTGGTTGVAKGAMLSHSNVIANILQAKWVAYPLIQRSQERIGVIALPLYHVFALTVNCLLFIELGVTGLLITNPRDIPAFVKELKKYPVMAITGVNTLFNALLNNPQLKEVDFSNLKLSVGGGAAIQRAVADRWHKTTGCHIIEGYGMTECSPLIAATRNDSTEYSGSIGVPVPNTDIRIVDDAGNDLPIGERGELWVKGPQVMQGYWQRPEDTAEVLKDGWMATGDIVELGQDLNLRIVDRKKDMIIVSGFNVYPNEIEDVVALHPKVNEVVVVGIPSEVSGESIKVFVTKKDESLTREELRNHCRQHLTGYKIPREIEFRDELPKSNVGKILRRVLRDEEVARVKSQMEGKL
notes: as for B1
With B2, in series [3], the Km was found to be 41.48 µM, the kcat came to 0.083 s⁻¹ and the kcat/Km came out at 2010 M⁻¹ s⁻¹. Besides, in series [4], the Km was 39.90 µM, the kcat was found to be 0.098 s⁻¹ and the kcat/Km was 2450 M⁻¹ s⁻¹.

The values above are taken from PMC5350145, “Either fadD1 or fadD2, Which Encode acyl-CoA Synthetase, Is Essential for the Survival of Haemophilus parasuis SC096” (Frontiers in Cellular and Infection Microbiology, 2017).
